Publication PMC13031558, “An intrinsically disordered region mediates RNA-binding selectivity and cellular activities of LARP6”

Legend:
[1] = biological target: T1, LARP6 La-module (Homo sapiens, UniProt Q9BRS8 70-300); test: BLI; Mg; 20 mM Tris-HCl pH 7.5, 100 mM KCl, 0.5 mM MgCl2, 1 mM TCEP, 0.05% Tween-20, 25 C; steady state, 1:1 fit; conditions: label: 5' biotin
T1 sequence: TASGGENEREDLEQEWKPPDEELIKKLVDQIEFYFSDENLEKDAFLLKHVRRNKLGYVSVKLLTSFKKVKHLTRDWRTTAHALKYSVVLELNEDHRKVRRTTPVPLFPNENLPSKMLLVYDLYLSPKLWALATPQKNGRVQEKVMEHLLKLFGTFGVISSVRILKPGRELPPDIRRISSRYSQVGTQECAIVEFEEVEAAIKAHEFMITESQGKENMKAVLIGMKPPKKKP

[2] = biological target: T2, LARP6 NTD (Homo sapiens, UniProt Q9BRS8 2-300); test: as above; conditions: label: 5' biotin
T2 sequence: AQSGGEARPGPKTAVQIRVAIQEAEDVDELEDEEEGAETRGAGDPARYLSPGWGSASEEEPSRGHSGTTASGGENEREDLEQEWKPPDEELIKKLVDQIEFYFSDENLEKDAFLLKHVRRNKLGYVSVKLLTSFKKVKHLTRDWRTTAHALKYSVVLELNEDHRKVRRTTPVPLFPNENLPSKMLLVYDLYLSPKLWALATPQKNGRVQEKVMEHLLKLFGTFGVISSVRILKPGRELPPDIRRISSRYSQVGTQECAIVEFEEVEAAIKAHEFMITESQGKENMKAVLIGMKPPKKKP

[3] = biological target: T2, LARP6 NTD; test: BLI; 0.5 mM Mg2+; BLI: 20 mM Tris-HCl pH 7.5, 100 mM KCl, 0.5 mM MgCl2, 1 mM TCEP, 0.05% Tween-20, 25 °C; MST, NMR and SAXS buffers not in the material; conditions: protein: recombinant; tags: 6xHis-SUMO-TEV tag, cleaved; label: 5' biotin; single strand
[4] = biological target: T1, LARP6 La-module; test: as above; conditions: protein: recombinant; tags: His tag cleaved by TEV; label: 5' biotin; single strand
[5] = biological target: T3, LARP6 NTR (Homo sapiens, UniProt Q9BRS8 2-83); test: as above; conditions: protein: recombinant; tags: 6xHis-SUMO-TEV tag, cleaved; label: 5' biotin; single strand
T3 sequence: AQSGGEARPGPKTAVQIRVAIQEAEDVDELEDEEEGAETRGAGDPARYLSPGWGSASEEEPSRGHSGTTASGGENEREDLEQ

[6] = biological target: T1, LARP6 La-module; test: MST; BLI: 20 mM Tris-HCl pH 7.5, 100 mM KCl, 0.5 mM MgCl2, 1 mM TCEP, 0.05% Tween-20, 25 °C; MST, NMR and SAXS buffers not in the material; conditions: protein: recombinant; tags: His tag cleaved by TEV; label: 5' 6-FAM; single strand
[7] = biological target: T3, LARP6 NTR; test: as above; conditions: protein: recombinant; tags: 6xHis-SUMO-TEV tag, cleaved; label: 5' 6-FAM; single strand
[8] = biological target: T2, LARP6 NTD; test: as above; conditions: protein: recombinant; tags: 6xHis-SUMO-TEV tag, cleaved; label: 5' 6-FAM; single strand

Binder | Kd [1] [nM] | Kd [2] [nM] | Kd [3] [nM] | Kd [4] [nM] | Kd [5] [nM] | Kd [6] [nM] | Kd [7] [nM] | Kd [8] [nM]
CUAAAUACAACACUGAUACUAGAUU (ssRNA) [CTNNA1 P1] | 1.3 ± 0.4 | 58 ± 5 |  |  |  |  |  | 
ACUGUUCGUCACUCAAAUGAAUUUG (ssRNA) [CTNNA1 U1] | 14 ± 0.8 |  | 587 ± 29 |  |  |  |  | 
CCCUCGGGGCUCCUGAAUAUCAGUC (ssRNA) [CTNNA1 U2] | 4.3 ± 0.1 | 180 ± 5 | 183 ± 5 | 4.4 ± 0.1 |  |  |  | 
CUAAAUACAACACUGAUACUAGAUU (ssRNA) [CTNNA1 P1 (5' biotin)] |  |  | 61 ± 5 | 1.5 ± 0.4 | 1200 ± 500 |  |  | 
AGGUGGUGAAUUUUCCAAGAACAUA (ssRNA) [CTNNA1 D1] | 2 ± 0.1 | 87 ± 4 | 85 ± 4 |  |  |  |  | 
GUUUAAGUUGAUUAAAAAUGCUUUU (ssRNA) [CTNNA1 D2] | 6.9 ± 0.6 | 360 ± 57 | 367 ± 57 |  |  |  |  | 
GGAAAUGGGCAGACUGAACCAGUCC (ssRNA) [CTNNA1 P2] | 0.9 ± 0.05 | 17 ± 1.2 |  | 0.91 ± 0.05 |  |  |  | 
CUAAAUACAACACUGAUACUAGAUU (ssRNA) [CTNNA1 P1 (5' 6-FAM)] |  |  |  |  |  | 5.8 | 8300 | 99
